Measurements as given in the supplement of paper PMC9112550, “Optimization of the antimicrobial peptide Bac7 by deep mutational scanning” (BMC Biology, 2022).

tested on: Escherichia coli TOP10; test: shrunken log2 fold change of peptide-encoding DNA abundance (4.5 h post-induction vs induction); higher = less antimicrobial activity (less host growth inhibition); details: time post-induction: 4.5 h; library: site-saturation at positions 5, 18, 19, 20
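Further: peptides expressed intracellularly from a pBAD plasmid library in pooled LB shake-flask culture, induced with 0.3% L-arabinose, DNA abundance read by NGS, three biological replicates, DESeq2 with apeglm shrinkage.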

Sequence | shrunken log2 fold change
RRIRQRPPRLPRPRPRPTIWPRP | -0.0969
RRIRGRPPRLPRPRPRPNWQPRP | 0.0611
RRIRMRPPRLPRPRPRPMQFPRP | 0.167
RRIRYRPPRLPRPRPRPDNDPRP | -0.17
RRIRPRPPRLPRPRPRPPRGPRP | 0.811
RRIRPRPPRLPRPRPRPVTSPRP | 0.0344
RRIRSRPPRLPRPRPRPALTPRP | 0.369
RRIRVRPPRLPRPRPRPLIWPRP | -0.0254
RRIRQRPPRLPRPRPRPESTPRP | -0.0105
RRIRLRPPRLPRPRPRPAYVPRP | -0.177
RRIRVRPPRLPRPRPRPQYFPRP | -0.19
RRIRPRPPRLPRPRPRPTSEPRP | 0.0181
RRIRARPPRLPRPRPRPLYKPRP | -0.362
RRIRRRPPRLPRPRPRPYEFPRP | -0.187
RRIRYRPPRLPRPRPRPQQIPRP | -0.142
RRIRYRPPRLPRPRPRPCWFPRP | -0.0378
RRIRYRPPRLPRPRPRPQMGPRP | 0.0669
RRIRDRPPRLPRPRPRPFSMPRP | -0.506
RRIRYRPPRLPRPRPRPLDKPRP | -0.0449
RRIRVRPPRLPRPRPRPCGVPRP | -0.0743
RRIRERPPRLPRPRPRPQDHPRP | -0.0577
RRIRCRPPRLPRPRPRPANGPRP | -0.0497

Sequence | shrunken log2 fold change
RRIRKRPPRLPRPRPRPSVAPRP | 0.394
RRIRPRPPRLPRPRPRPQDHPRP | -0.12
RRIRTRPPRLPRPRPRPFIMPRP | -0.339
RRIRCRPPRLPRPRPRPHHWPRP | -0.0852
RRIRKRPPRLPRPRPRPLIVPRP | -0.223
RRIRGRPPRLPRPRPRPNICPRP | 0.168
RRIRFRPPRLPRPRPRPDGGPRP | -0.537
RRIRIRPPRLPRPRPRPTWVPRP | -0.022
RRIRKRPPRLPRPRPRPVFYPRP | -0.0751
RRIRIRPPRLPRPRPRPPISPRP | -0.391
RRIRERPPRLPRPRPRPQGMPRP | -0.284
RRIRSRPPRLPRPRPRPCDTPRP | -0.227
RRIRRRPPRLPRPRPRPQGQPRP | -0.0135
RRIRLRPPRLPRPRPRPVSKPRP | -0.181
RRIRERPPRLPRPRPRPFDVPRP | -0.0685
RRIRTRPPRLPRPRPRPYHLPRP | -0.805
RRIRYRPPRLPRPRPRPTQSPRP | 0.0623
RRIRERPPRLPRPRPRPYHQPRP | -0.416
RRIRNRPPRLPRPRPRPGQKPRP | -0.000842
RRIRLRPPRLPRPRPRPLQWPRP | 0.126
RRIRIRPPRLPRPRPRPFSMPRP | -0.0858
RRIRWRPPRLPRPRPRPEMCPRP | -0.0695

Sequence | shrunken log2 fold change
RRIRFRPPRLPRPRPRPPFQPRP | 0.258
RRIRTRPPRLPRPRPRPTSCPRP | 0.104
RRIRIRPPRLPRPRPRPRTDPRP | -0.158
RRIRWRPPRLPRPRPRPHRTPRP | -0.168
RRIRKRPPRLPRPRPRPCYWPRP | 0.0448
RRIRFRPPRLPRPRPRPIVDPRP | -0.136
RRIRNRPPRLPRPRPRPQDDPRP | 0.00776
RRIRWRPPRLPRPRPRPWRNPRP | 0.0636
RRIRERPPRLPRPRPRPIIMPRP | -0.119
RRIRPRPPRLPRPRPRPQFFPRP | -0.0064
RRIRLRPPRLPRPRPRPEEVPRP | -0.00242
RRIRDRPPRLPRPRPRPWTKPRP | 0.0467
RRIRCRPPRLPRPRPRPSERPRP | -0.0162
RRIRERPPRLPRPRPRPYSRPRP | -0.195
RRIRDRPPRLPRPRPRPYNDPRP | -0.307
RRIRVRPPRLPRPRPRPLGAPRP | 0.352
RRIRIRPPRLPRPRPRPEQSPRP | 0.168
RRIRLRPPRLPRPRPRPHAIPRP | -0.346
RRIRTRPPRLPRPRPRPAGSPRP | -0.000597
RRIRQRPPRLPRPRPRPFRIPRP | -0.0135
RRIRFRPPRLPRPRPRPVQKPRP | 0.00252
RRIRKRPPRLPRPRPRPPRHPRP | 1.04

Sequence | shrunken log2 fold change
RRIRVRPPRLPRPRPRPMFIPRP | -0.384
RRIRTRPPRLPRPRPRPGSKPRP | 0.0896
RRIRGRPPRLPRPRPRPCKQPRP | 0.0431
RRIRSRPPRLPRPRPRPQGNPRP | -0.679
RRIRARPPRLPRPRPRPPISPRP | 0.027
RRIRQRPPRLPRPRPRPLENPRP | -0.0226
RRIRGRPPRLPRPRPRPRCKPRP | 0.476
RRIRLRPPRLPRPRPRPISCPRP | -0.0691
RRIRWRPPRLPRPRPRPLIEPRP | 0.00804
RRIRGRPPRLPRPRPRPVWRPRP | 1.21
RRIRMRPPRLPRPRPRPPRDPRP | 1.6
RRIRYRPPRLPRPRPRPRPNPRP | -0.0554
RRIRGRPPRLPRPRPRPDFHPRP | -0.0976
RRIRMRPPRLPRPRPRPDKIPRP | 0.179
RRIRFRPPRLPRPRPRPMGKPRP | -0.307
RRIRARPPRLPRPRPRPKMYPRP | 0.152
RRIRHRPPRLPRPRPRPHAFPRP | -0.0301
RRIRFRPPRLPRPRPRPEQCPRP | 0.285
RRIRPRPPRLPRPRPRPYAEPRP | -0.377
RRIRQRPPRLPRPRPRPGCEPRP | 0.0109
RRIRFRPPRLPRPRPRPHAFPRP | -0.411
RRIRGRPPRLPRPRPRPDETPRP | 0.349

Sequence | shrunken log2 fold change
RRIRCRPPRLPRPRPRPAPAPRP | 0.84
RRIRFRPPRLPRPRPRPLAWPRP | 0.32
RRIRRRPPRLPRPRPRPAKRPRP | 0.863
RRIRDRPPRLPRPRPRPFPMPRP | -0.0572
RRIRHRPPRLPRPRPRPQLQPRP | 0.0457
RRIRKRPPRLPRPRPRPFQTPRP | 0.12
RRIRYRPPRLPRPRPRPGMCPRP | 0.0154
RRIRWRPPRLPRPRPRPDESPRP | -0.0029
RRIRRRPPRLPRPRPRPLHAPRP | 1.06
RRIRTRPPRLPRPRPRPKMEPRP | -0.0203
RRIRFRPPRLPRPRPRPQVRPRP | 0.305
RRIRFRPPRLPRPRPRPYVFPRP | -0.408
RRIRIRPPRLPRPRPRPFRGPRP | -0.0233
RRIRHRPPRLPRPRPRPDCHPRP | 0.0149
RRIRNRPPRLPRPRPRPATRPRP | 0.322
RRIRHRPPRLPRPRPRPRMTPRP | 0.19
RRIRARPPRLPRPRPRPFNYPRP | -0.0393
RRIRLRPPRLPRPRPRPIWPPRP | 0.356
RRIRARPPRLPRPRPRPSHVPRP | -0.306
RRIRFRPPRLPRPRPRPWAHPRP | 0.195
RRIRERPPRLPRPRPRPNIPPRP | -0.396
